# Source: IntAct's records for PubMed 28441531
# B1: Myelin regulatory factor homolog 1 (Caenorhabditis elegans), G5EFI7 (parent)
# chain: MSSSDLLKGEFDGLNSEHFNMMQYLTQDTDEDDGSMVSPTSSADSMHQNLGVQQQQQQMLQAQQRQNQNGIFQPRRFPESPAMTDPCGNVSSSSSSSHHSDPMFSPNEFNGYAGANDNGNQTMNNIQSQQLSQQQHQQTRGGNLMMPQQSSIHAQMQNMNAPQFWSQPGTAAVNQPTNTLAQLNLFNIIRGGADSGMPSPVLEMPRKRSRLDTPCETPRIAPSFAGIDGFPDENYSQQQAIRFSKFQEEQWSPLYDINAQPLQQLQVHVVADKGFNYNSNDNCFVNQKKNHFQISVNVEASDTMPPKYVNFNNRLVPIRDFKLSFCGVKAEMPSSEITIRQSRADRKPHTHTPVLFEIQERRMTKVCVPRLHFSETTLNNQRKQKNRPNPEQKFFLLVVRLFASIDESEHGVLIQSYASEKVIVRATNPGSFEPQDTDIGWQRNGGALYTQGAVSVGTEHQVESAKLTVAGDIYMSGRIINPSDIRLKEAITERETAEAIENLLKLRVVDYRYKPEVADIWGLDEQQRHRTGLIAQELQAVLPDAVRDIGDYLTIDEGRVFYETVMATQQLCRMTGDLDSKIDEKVAEISRRLNEYAVRKKLASSMASNLNGDNKSLSYSRCSLTSTATNATSQPKRSRKHRAIKQAQSCGSRLSQGTVVTLVSIMAACLLAMSALYVLDWHNRNYGYHQHFETNTPSTKGELANLVISPANFMPSFQPDAPILLEKCFNPSCKTYCCTDTPPVVEDSRAIATHGLDNGDEVYPESPSNRTNGIARAPNLEHMAFETGVEIRIPALNVTLDQRYCVERSCNKRKGIFNVFVPVSRYMPDVALEIEIKAPISKVVSNCGAFPSTEFNHKVCPLSRTQQSESPVPTSTRLFDNIFELSMGSFIQSAYRFRVGYSTETCFSEDSNGSYEEYNLIFYRMCTLSSS
# partner: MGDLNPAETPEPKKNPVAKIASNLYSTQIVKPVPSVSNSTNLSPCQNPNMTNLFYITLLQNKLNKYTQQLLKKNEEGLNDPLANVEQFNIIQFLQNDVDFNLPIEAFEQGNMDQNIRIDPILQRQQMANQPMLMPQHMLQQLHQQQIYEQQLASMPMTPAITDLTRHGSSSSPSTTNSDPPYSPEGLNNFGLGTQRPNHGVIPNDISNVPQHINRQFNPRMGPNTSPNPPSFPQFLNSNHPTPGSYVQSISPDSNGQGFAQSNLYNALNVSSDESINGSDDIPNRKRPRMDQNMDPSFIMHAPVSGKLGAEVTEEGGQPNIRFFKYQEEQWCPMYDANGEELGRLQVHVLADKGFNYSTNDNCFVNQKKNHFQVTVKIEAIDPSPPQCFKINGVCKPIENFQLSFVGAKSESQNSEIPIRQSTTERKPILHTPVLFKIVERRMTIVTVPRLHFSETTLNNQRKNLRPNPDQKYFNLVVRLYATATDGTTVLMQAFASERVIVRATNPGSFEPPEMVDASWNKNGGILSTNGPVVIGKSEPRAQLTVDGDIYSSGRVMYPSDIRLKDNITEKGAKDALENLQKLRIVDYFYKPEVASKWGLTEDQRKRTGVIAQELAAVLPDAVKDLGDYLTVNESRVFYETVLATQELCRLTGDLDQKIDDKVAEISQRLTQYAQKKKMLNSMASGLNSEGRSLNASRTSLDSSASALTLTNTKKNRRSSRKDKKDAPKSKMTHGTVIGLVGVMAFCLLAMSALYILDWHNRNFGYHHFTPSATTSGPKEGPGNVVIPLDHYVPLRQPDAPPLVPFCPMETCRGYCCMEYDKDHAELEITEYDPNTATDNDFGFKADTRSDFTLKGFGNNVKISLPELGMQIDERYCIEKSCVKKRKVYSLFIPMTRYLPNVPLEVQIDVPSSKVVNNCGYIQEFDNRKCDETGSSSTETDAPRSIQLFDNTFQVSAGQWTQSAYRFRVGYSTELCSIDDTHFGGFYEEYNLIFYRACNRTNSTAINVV
# Variants of: B1
# Conditions: with myrf2_caeel myrf-2, D9PTN5
row,effect of a mutation on the interaction,Variant
1,with no effect,G274R
